Laboratory results as given in patent publication US20190091326A1.

Assays:
[1] = molecular target: A244 V1/V2 scaffold, wildtype, gD-tagged, produced in GnTI- 293 HEK cells (herpes simplex virus 1; HIV-1 isolate A244) (UniProt Q69091); test: capture ELISA on 34.1 anti-gD; scaffold in medium of GnTI- cells
[2] = molecular target: ZM233 V1/V2 scaffold, wildtype, gD-tagged, produced in GnTI- 293 HEK cells (herpes simplex virus 1; HIV-1 isolate ZM233); test: as above
[3] = molecular target: A244 V1/V2 scaffold, wildtype (unmutated), Strep-tag/6x Histidine-tag, expressed in GnTI- cells (HIV-1 isolate A244); test: SPR (Biacore 3000), PG9 captured by anti-human Fc at about 100 RU, scaffold flowed, 1:1 Langmuir fit
[4] = molecular target: A244 V1/V2 scaffold, wildtype (unmutated), Strep-tag/6x Histidine-tag, expressed in GnTI- cells (HIV-1 isolate A244); test: SPR (Biacore 3000), PG9 captured on anti-human Fc, scaffold flowed, 1:1 Langmuir fit
[5] = molecular target: ZM233 V1/V2 scaffold, engineered, Strep-tag/6x Histidine-tag, expressed in normal 293 cells (HIV-1 isolate ZM233); test: as above
[6] = molecular target: A244 V1/V2 scaffold, engineered, Strep-tag/6x Histidine-tag, produced in normal 293 cells (HIV-1 isolate A244); test: as above
[7] = molecular target: 108060-I169K V1/V2 scaffold, gD-tagged, produced in normal 293 HEK cells (herpes simplex virus 1; HIV-1 isolate 108060); test: ELISA; table row 108060 V1/V2 I169K, column 293
[8] = molecular target: JRFL-E168K V1/V2 scaffold, engineered, gD-tagged, produced in normal 293 HEK cells (herpes simplex virus 1; HIV-1 isolate JRFL); test: ELISA; table row JRFL-E168K V1/V2.eng1*, column 293
[9] = molecular target: Bal.01 V1/V2 wt (GnTI-); test: ELISA; table row Bal.01 V1/V2 wt, GnTI-
[10] = molecular target: 108060 I169K/E172V/T161M/N156I V1/V2 scaffold, gD-tagged, produced in normal 293 HEK cells (herpes simplex virus 1; HIV-1 isolate 108060); test: ELISA; table row 108060 I169K/E172V/T161M/N156I, column 293
[11] = molecular target: JRFL-E168K V1/V2 scaffold, wildtype, gD-tagged, produced in GnTI- 293 HEK cells (herpes simplex virus 1; HIV-1 isolate JRFL) (UniProt Q69091); test: ELISA; table row JRFL-E168K V1/V2 wt, GnTI-
[12] = molecular target: CAP.45 V1/V2 wt (GnTI-); test: ELISA; table row CAP.45 V1/V2 wt, GnTI-
[13] = molecular target: A244 V1/V2 scaffold, wildtype, gD-tagged, produced in normal 293 HEK cells (herpes simplex virus 1; HIV-1 isolate A244) (UniProt Q69091); test: capture ELISA on 34.1 anti-gD; scaffold made in 293 cells
[14] = molecular target: 108060 I169K/E172V/T161M/N156I/S164P/L165G V1/V2 scaffold, gD-tagged, produced in GnTI- 293 HEK cells (herpes simplex virus 1; HIV-1 isolate 108060); test: capture ELISA on 34.1 anti-gD; purified scaffold made in GnTI- cells
[15] = molecular target: 108060 I169K/E172V/T161M/N156I/S164G/D167G V1/V2 scaffold, gD-tagged, produced in GnTI- 293 HEK cells (herpes simplex virus 1; HIV-1 isolate 108060); test: as above
[16] = molecular target: MN V1/V2 scaffold, engineered, gD-tagged, produced in GnTI- 293 HEK cells (herpes simplex virus 1; HIV-1 isolate MN); test: as above
[17] = molecular target: JRFL-E168K V1/V2 scaffold, engineered, gD-tagged, produced in GnTI- 293 HEK cells (herpes simplex virus 1; HIV-1 isolate JRFL); test: as above
[18] = molecular target: MN V1/V2 scaffold, wildtype, gD-tagged, produced in GnTI- 293 HEK cells (herpes simplex virus 1; HIV-1 isolate MN) (UniProt Q69091); test: ELISA; table row MN V1/V2 wt, GnTI-
[19] = molecular target: A244 V1/V2 scaffold, wildtype (unmutated), Strep-tag/6x Histidine-tag, expressed in GnTI- cells (HIV-1 isolate A244); test: SPR (Biacore 3000), PG9 captured by anti-human Fc, scaffold flowed
[20] = molecular target: A244 V1/V2 scaffold, engineered, Strep-tag/6x Histidine-tag, produced in normal 293 cells (HIV-1 isolate A244); test: as above
[21] = molecular target: MN V1/V2 scaffold, engineered, gD-tagged, produced in GnTI- 293 HEK cells (herpes simplex virus 1; HIV-1 isolate MN); test: ELISA; table row MN V1/V2.eng1*, GnTI-
[22] = molecular target: 108060 I169K/E172V/T161M/N156I/S164G/D167G V1/V2 scaffold, gD-tagged, produced in GnTI- 293 HEK cells (herpes simplex virus 1; HIV-1 isolate 108060); test: ELISA; table row 108060 V1/V2.eng1*, GnTI-
[23] = molecular target: 108060 I169K/E172V/T161M/N156I V1/V2 scaffold, gD-tagged, produced in GnTI- 293 HEK cells (herpes simplex virus 1; HIV-1 isolate 108060); test: ELISA; table row 108060 I169K/E172V/T161M/N156I, GnTI-

PG9 monoclonal antibody
EC50 [1]: 0.00074 µg/mL | EC50 [2]: 0.0095 µg/mL | Kd [3]: 15 nM | kon [4]: 53000 M⁻¹ s⁻¹ | koff [5]: 0.0023 s⁻¹ | kon [5]: 40000 M⁻¹ s⁻¹ | kon [6]: 40000 M⁻¹ s⁻¹ | EC50 [7]: > 10 µg/mL | EC50 [8]: 0.0473 µg/mL | EC50 [9]: 0.0802 µg/mL | EC50 [10]: 0.599 µg/mL | EC50 [11]: > 10 µg/mL | EC50 [12]: 0.0527 µg/mL | EC50 [13]: 0.893 µg/mL | EC50 [14]: 0.00834 µg/mL | EC50 [15]: 0.0068 µg/mL | EC50 [16]: 0.0079 µg/mL | EC50 [17]: 0.013 µg/mL | EC50 [18]: > 10 µg/mL | koff [19]: 0.00077 s⁻¹ | koff [20]: 0.0019 s⁻¹ | EC50 [21]: 0.00796 µg/mL | EC50 [22]: 0.00685 µg/mL | EC50 [23]: 0.0281 µg/mL
